The values that follow come from publication PMC7051176.

The target of this test is mannose receptor (MR) (human (endogenous in primary monocyte-derived macrophages)) (UniProt P22897).

Take “HIV-1 89.6 Env (from UniProt Q73372) (natural protein)”: the infection of primary human MDM by wild-type HIV-1 89.6 (intracellular Gag stain) with increasing concentrations of soluble mannan, normalized to 0 mg/mL mannan is 16 fold.
